Ends that are not written are not given here. * marks the point of attachment. FITC = O=C1OC2(c3ccc(O)cc3Oc3cc(O)ccc32)c2ccc(NC(=S)*)cc21
Legend:
Conditions in all cases: both partners purified
[1] = target: T1, hHsp70-C17/C574/C603 (hHsp70 C267S/C306S), untreated control (human, UniProt P0DMV8 1-641, C267S | C306S); experiment: fluorescence polarisation; steady state; increasing concentrations of Hsp70 with 20 nM FAR peptide, 60-min incubation, RT, buffer B (50 mM Tris-HCl pH 7.5, 100 mM KCl, 5 mM MgCl2); single site-binding model
T1 construct: human HspA1A (hHsp70), UniProtKB P0DMV8, full length with C267S/C306S; also called unmodified form

[2] = target: T2, disulfide-bonded hHsp70-C17/C574/C603 (human, UniProt P0DMV8 1-641, C267S | C306S, intramolecular disulfide bond between Cys574 and Cys603); experiment: as above
T2 construct: human HspA1A (hHsp70), UniProtKB P0DMV8, full length with C267S/C306S; also called -S-S-; disulfide-bonded form of full length hHsp70

WT hHsp70 (human HspA1A) = target: T3, WT hHsp70 (human HspA1A) (human, UniProt P0DMV8 1-641); experiment: fluorescence polarisation; kinetic; 20 nM FAR mixed with 10 μM hHsp70 in the presence of 1 mM ADP, RT, FP recorded against time; diamide or diamide with GSH added at 60 min, DTT at 120 min
T3 construct: human HspA1A (hHsp70), UniProtKB P0DMV8, full length; also called HspA1A/B; human inducible Hsp70

Measured: binding result

T3 sequence (P0DMV8 whole entry): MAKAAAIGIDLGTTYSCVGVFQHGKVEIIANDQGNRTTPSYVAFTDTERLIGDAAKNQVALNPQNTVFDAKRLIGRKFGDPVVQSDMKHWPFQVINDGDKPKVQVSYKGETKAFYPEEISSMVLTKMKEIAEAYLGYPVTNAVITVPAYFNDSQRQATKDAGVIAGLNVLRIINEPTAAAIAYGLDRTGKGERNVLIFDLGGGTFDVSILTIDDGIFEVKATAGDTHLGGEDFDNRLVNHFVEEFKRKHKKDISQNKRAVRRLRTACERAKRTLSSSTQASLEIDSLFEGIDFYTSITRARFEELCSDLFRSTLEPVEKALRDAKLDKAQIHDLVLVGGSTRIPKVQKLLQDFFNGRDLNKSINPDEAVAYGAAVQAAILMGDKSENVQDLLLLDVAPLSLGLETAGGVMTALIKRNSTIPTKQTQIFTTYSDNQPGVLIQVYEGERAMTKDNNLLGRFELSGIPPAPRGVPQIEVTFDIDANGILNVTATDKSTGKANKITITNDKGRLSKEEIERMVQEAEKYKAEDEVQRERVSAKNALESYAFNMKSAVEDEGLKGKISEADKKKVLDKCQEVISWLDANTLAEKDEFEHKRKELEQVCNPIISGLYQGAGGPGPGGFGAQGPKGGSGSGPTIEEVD
T1 sequence (P0DMV8 whole entry C267S/C306S): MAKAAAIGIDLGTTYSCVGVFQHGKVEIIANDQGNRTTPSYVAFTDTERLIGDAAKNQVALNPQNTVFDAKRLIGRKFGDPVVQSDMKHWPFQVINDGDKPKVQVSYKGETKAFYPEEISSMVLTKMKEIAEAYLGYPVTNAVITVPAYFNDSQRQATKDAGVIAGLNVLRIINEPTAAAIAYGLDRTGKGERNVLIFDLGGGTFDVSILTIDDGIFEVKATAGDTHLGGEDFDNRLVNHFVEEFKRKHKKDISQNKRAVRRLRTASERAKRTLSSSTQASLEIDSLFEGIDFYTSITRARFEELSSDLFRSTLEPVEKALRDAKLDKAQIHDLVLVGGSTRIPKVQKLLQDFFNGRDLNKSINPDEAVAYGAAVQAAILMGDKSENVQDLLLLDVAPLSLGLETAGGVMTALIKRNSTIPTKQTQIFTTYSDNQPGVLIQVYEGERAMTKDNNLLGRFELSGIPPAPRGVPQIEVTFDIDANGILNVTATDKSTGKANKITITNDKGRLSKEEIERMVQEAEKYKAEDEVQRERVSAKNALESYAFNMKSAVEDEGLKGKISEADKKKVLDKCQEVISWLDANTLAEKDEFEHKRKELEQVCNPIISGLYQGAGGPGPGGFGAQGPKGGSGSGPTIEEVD
T2 sequence (P0DMV8 whole entry C267S/C306S): as above

B1: FITC-ALLLSAPRR peptide (peptide)
peptide: {FITC}-ALLLSAPRR
notes: fluorescently labelled model substrate peptide of Hsp70; also called FAR; FAR peptide
binds: all assays above

— PMC9800336, “Exploration of the cysteine reactivity of human inducible Hsp70 and cognate Hsc70” (The Journal of Biological Chemistry, 2022)
